Bridges are numbered along the chain shown (N, C = ends). Where no end group is shown, it is not given here.
Target: T1, IMAB362
T1 construct: It is the target of the phage display selection; also called IMAB362 antibody
Assay: peptide microarray, 1 µg/ml IMAB362, fluorescence signal; this construct is the reference

T1 sequence (VH, as listed by the source limits assumed, chain 1 of 2): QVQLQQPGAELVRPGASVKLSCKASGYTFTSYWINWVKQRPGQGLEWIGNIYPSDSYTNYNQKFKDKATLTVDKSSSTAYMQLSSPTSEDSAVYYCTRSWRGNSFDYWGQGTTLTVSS
T1 sequence (VL, as listed by the source limits assumed, chain 2 of 2): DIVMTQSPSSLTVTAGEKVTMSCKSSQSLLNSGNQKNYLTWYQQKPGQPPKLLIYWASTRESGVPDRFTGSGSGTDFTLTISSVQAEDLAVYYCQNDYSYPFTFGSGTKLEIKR

Binder | % Affinity compared to hit peptide [%]
ACHLGYPGRCGGGSK (disulfide 2-10 (inferred); also: C-terminal Lys carries an unspecified functional group X for microarray attachment, Microarray construct; also called parental peptide (cyclic, immobilized through C-terminus)) [Cyclopeptide-GGS-K(X) of ACHLGYPGRCG (Seq. 3)] | 100
ACHLNYPGYCGGGSK (disulfide 2-10 (inferred); also: C-terminal Lys carries an unspecified functional group X for microarray attachment, Microarray construct; also called parental peptide (cyclic, immobilized through C-terminus)) [Cyclopeptide-GGS-K(X) of ACHLNYPGYCG (Seq. 1)] | 100
ACHYSYPGVCGGGSK (disulfide 2-10 (inferred); also: C-terminal Lys carries an unspecified functional group X for microarray attachment, Microarray construct; also called parental peptide (cyclic, immobilized through C-terminus)) [Cyclopeptide-GGS-K(X) of ACHYSYPGVCG (Seq. 2)] | 100

From US20230406902A1 (BIONTECH, published 2023)
